In the Human Domainome abundance scans (Beltran et al. 2025):
± gives the uncertainty stated by the source.

B1: Gamma-crystallin C, residues 91 to 170; numbered along this chain, P07315 (parent)
chain: RLYEREDHKGLMMELSEDCPSIQDRFHLSEIRSLHVLEGCWVLYELPNYRGRQYLLRPQEYRRCQDWGAMDAKAGSLRRV

Variants of: B1
Test: abundance fitness (aPCA) (normalised: wild type 0, dead -1); higher = more abundant; growth selection in yeast, the domain comes from the species named
Details: Homo sapiens

Abundance fitness, by site and new letter:
Y54: K -0.76 ± 0.21, L -0.727 ± 0.15, A -0.891 ± 0.23, F -0.118 ± 0.22, I -0.395 ± 0.21, S -0.614 ± 0.077, E -1.19 ± 0.48, R -0.897 ± 0.11, T -0.717 ± 0.17, Q -0.783 ± 0.27, P -1 ± 0.2, W -0.36 ± 0.1, G -0.968 ± 0.32, M -0.692 ± 0.23
E45: Q -0.211 ± 0.086, L -0.875 ± 0.14, R -0.437 ± 0.063, T -0.118 ± 0.068, D -0.265 ± 0.33, S -0.149 ± 0.071, N -0.933 ± 0.5, I -0.762 ± 0.21, G -0.492 ± 0.065, W -0.644 ± 0.15, P -0.832 ± 0.16, M -0.792 ± 0.28, H -0.582 ± 0.19, A -0.191 ± 0.071, K -0.465 ± 0.15
W67: A -0.944 ± 0.22
N48: R -0.234 ± 0.053, D -0.007 ± 0.13, T -0.823 ± 0.2, C -0.339 ± 0.17, Q -0.017 ± 0.12, G -0.07 ± 0.055, K -0.215 ± 0.14, F 0.077 ± 0.11, E -0.314 ± 0.096, Y -0.006 ± 0.23, S -0.238 ± 0.069, V -0.929 ± 0.24, P -0.65 ± 0.13, H -0.022 ± 0.12, A -0.348 ± 0.13, W -0.151 ± 0.045
R52: G -0.402 ± 0.21, L -0.219 ± 0.087, V -0.137 ± 0.1, P -0.093 ± 0.16, C -0.587 ± 0.31, D -0.338 ± 0.12, W -0.523 ± 0.16, E -0.28 ± 0.19, H -0.324 ± 0.19, A 0.009 ± 0.11, I -0.31 ± 0.19, T -0.058 ± 0.16, S -0.234 ± 0.12, N -0.031 ± 0.49, Q -0.128 ± 0.13
Q53: P -0.144 ± 0.053, F -0.425 ± 0.29, K -0.19 ± 0.17, S 0.074 ± 0.056, V -0.747 ± 0.18, M -0.345 ± 0.17, Y -0.159 ± 0.096, G -0.103 ± 0.065, T -0.197 ± 0.12, C -0.219 ± 0.1, R -0.092 ± 0.051, A -0.122 ± 0.056, L -0.78 ± 0.12, W -0.225 ± 0.11, D -0.241 ± 0.2, N 0.005 ± 0.35, H -0.386 ± 0.34, E 0.087 ± 0.086
R57: V -0.14 ± 0.051, Q -0.045 ± 0.13, M -0.297 ± 0.097, E -0.064 ± 0.1, T 0.052 ± 0.091, W -0.179 ± 0.092, K -0.148 ± 0.24, F -0.067 ± 0.23, G -0.134 ± 0.061, S 0.018 ± 0.065, L -0.24 ± 0.12, N 0.021 ± 0.16, D -0.174 ± 0.14, H -0.034 ± 0.1, C -0.215 ± 0.13, I -0.566 ± 0.43, A 0.003 ± 0.078
R63: Y -0.23 ± 0.18, C -0.15 ± 0.14, H -0.167 ± 0.12, S -0.091 ± 0.057, Q -0.089 ± 0.05, F -0.574 ± 0.18, L -0.654 ± 0.052, M -0.32 ± 0.11, T 0.016 ± 0.076, E -0.234 ± 0.091, A -0.056 ± 0.043, P -1.02 ± 0.18, D -0.58 ± 0.16
R62: N -0.64 ± 0.41, E -0.6 ± 0.15, G -0.237 ± 0.074, Y -0.252 ± 0.43, W -0.073 ± 0.11, M 0.195 ± 0.23, F -0.086 ± 0.14, V -0.365 ± 0.093, S -0.069 ± 0.066, Q -0.1 ± 0.11, D -0.619 ± 0.21, T -0.262 ± 0.075, A 0.07 ± 0.079, P -0.196 ± 0.055
G51: V -0.93 ± 0.2, W -0.268 ± 0.18, C -0.695 ± 0.27, A -0.833 ± 0.27, R -0.589 ± 0.098, T -0.49 ± 0.11, H -0.752 ± 0.46, L -0.807 ± 0.19, P -1.03 ± 0.49, S -0.962 ± 0.18
Y61: L -0.922 ± 0.15, G -0.925 ± 0.16, H -0.919 ± 0.32, S -0.936 ± 0.12, R -1.06 ± 0.21, C -0.934 ± 0.14, A -1.04 ± 0.34, I -0.808 ± 0.37, V -1.05 ± 0.26, M -0.964 ± 0.2, T -0.529 ± 0.12, P -1.07 ± 0.2
Y44: T -1.04 ± 0.24, P -0.905 ± 0.21, N -0.325 ± 0.13, Q -0.567 ± 0.4, L -0.648 ± 0.086, W -0.599 ± 0.081, H -0.306 ± 0.15, V -0.784 ± 0.13, S -0.568 ± 0.078, R -0.478 ± 0.09
L56: R -0.836 ± 0.1, M -0.553 ± 0.23, G -0.928 ± 0.11, P -0.931 ± 0.21, A -0.939 ± 0.21, T -0.636 ± 0.18, Y -0.926 ± 0.35, H -0.953 ± 0.32, E -0.93 ± 0.41, W -0.988 ± 0.18, I -0.515 ± 0.25, S -0.957 ± 0.18, K -0.806 ± 0.44
P58: T -0.105 ± 0.1, G -0.744 ± 0.13, D -0.167 ± 0.15, K -0.15 ± 0.3, H -0.587 ± 0.3, V -0.378 ± 0.12, L -0.98 ± 0.19, I -0.623 ± 0.17, C -0.334 ± 0.12, S -0.202 ± 0.08, R -0.453 ± 0.067, A -0.167 ± 0.11, F -0.882 ± 0.42, N -0.268 ± 0.13
P47: L -0.601 ± 0.12, W -0.832 ± 0.27, A -0.07 ± 0.059, D -0.178 ± 0.094, C -0.109 ± 0.25, T -0.449 ± 0.34, Q -0.348 ± 0.13, V -0.591 ± 0.13, R -0.502 ± 0.086, Y -0.891 ± 0.36
Q65: A -0.075 ± 0.049, L -0.17 ± 0.073, I -0.336 ± 0.27, P -0.687 ± 0.089, Y -0.149 ± 0.16, E -0.044 ± 0.15, R -0.173 ± 0.061, V 0.071 ± 0.11, M -0.283 ± 0.12, C -0.265 ± 0.11, D -0.355 ± 0.2, T -0.032 ± 0.074, H -0.242 ± 0.2, K -0.06 ± 0.12, S -0.02 ± 0.059, G -0.08 ± 0.1, N -0.129 ± 0.16, F -0.248 ± 0.15
Q59: E -0.354 ± 0.19, A 0.041 ± 0.1, D -0.217 ± 0.3, N -0.364 ± 0.34, C -0.052 ± 0.12, R -0.047 ± 0.062, K 0.135 ± 0.11, L -0.438 ± 0.078, V -0.266 ± 0.1, G 0.02 ± 0.055, P -0.994 ± 0.23, F -0.377 ± 0.14, H -0.245 ± 0.1, I -0.145 ± 0.088, M -0.038 ± 0.12, S -0.116 ± 0.06, W -0.486 ± 0.073
R50: W -0.664 ± 0.14, N -0.242 ± 0.31, L -0.063 ± 0.062, C -0.021 ± 0.097, E -0.068 ± 0.096, G 0.04 ± 0.082, A -0.066 ± 0.082, Q -0.012 ± 0.16, K -0.029 ± 0.16, F -0.375 ± 0.22, V -0.085 ± 0.1, M -0.108 ± 0.17, S -0.007 ± 0.087, T -0.002 ± 0.096, P -0.916 ± 0.23, Y -0.606 ± 0.42
C64: W -0.086 ± 0.17, H 0.063 ± 0.1, L -0.841 ± 0.099, Y -0.116 ± 0.15, M -0.404 ± 0.12, A -0.144 ± 0.061, P 0.014 ± 0.085, R -0.653 ± 0.073, T -0.213 ± 0.25, G -0.597 ± 0.099, Q -0.795 ± 0.23, S -0.285 ± 0.071, F -0.093 ± 0.14, V -0.596 ± 0.091
L55: D -0.441 ± 0.21, K -0.161 ± 0.17, F -0.078 ± 0.12, E -0.074 ± 0.14, M -0.01 ± 0.084, I 0.075 ± 0.12, Y 0.161 ± 0.18, G -0.082 ± 0.089, S -0.08 ± 0.05, C -0.241 ± 0.15, Q -0.067 ± 0.089, T 0.1 ± 0.093, H -0.053 ± 0.14, A -0.09 ± 0.086, V -0.087 ± 0.066, W -0.098 ± 0.092
D66: E -0.083 ± 0.14, L -0.518 ± 0.054, Q -0.491 ± 0.12, T -0.934 ± 0.29, P -0.879 ± 0.17, M -0.47 ± 0.13, V -0.749 ± 0.15, Y -0.603 ± 0.27, H -0.548 ± 0.23, A -0.313 ± 0.12, R -0.857 ± 0.14, C -0.485 ± 0.22, W -0.639 ± 0.18, S -0.316 ± 0.06
Y49: H -0.94 ± 0.23, V -0.969 ± 0.5, G -1.11 ± 0.48, P -0.942 ± 0.29, S -0.891 ± 0.17, L -0.906 ± 0.16, K -0.918 ± 0.5, Q -0.85 ± 0.36, E -0.734 ± 0.29, W -0.551 ± 0.13, M -0.981 ± 0.49, N -0.198 ± 0.3, A -1.04 ± 0.23, R -0.9 ± 0.2, C -0.914 ± 0.29
L46: N -0.767 ± 0.46, W -0.237 ± 0.12, E 0.04 ± 0.1, C -0.075 ± 0.15, G -0.27 ± 0.037, T -0.863 ± 0.18, R -0.146 ± 0.056, V -0.98 ± 0.35, M -0.188 ± 0.13, D -0.43 ± 0.21, K -0.051 ± 0.089, A 0.023 ± 0.1, F 0.047 ± 0.095, Y -0.162 ± 0.14, Q -0.262 ± 0.13
E60: H -0.174 ± 0.095, V -0.117 ± 0.09, K -0.197 ± 0.18, W -0.206 ± 0.084, M -0.162 ± 0.13, L -0.001 ± 0.047, Y -0.069 ± 0.14, I -0.219 ± 0.18, A 0.045 ± 0.06, D -0.235 ± 0.19, S -0.018 ± 0.067, C -0.172 ± 0.1, T -0.081 ± 0.07, F -0.468 ± 0.35, Q 0.034 ± 0.1, P -0.142 ± 0.062, R 0.006 ± 0.071
